The supplement of paper PMC10126150
± gives the standard deviation of the averaged measurements.

Tested on: ATP
Assay: switch fluorescence ratio, 500 uM ATP over buffer (Cy3 cluster intensity, sum of 5 cycles each) (fold (ratio)); higher = stronger signal-on switching upon ATP binding; sequences stand for … in TCGTCGGCAGCGTCAGATGTGTATAAGAGACAGTTTTTTTTTTTTTTTTTTTTTTTTT…TC
Details: aptamer strand: ATP DNA aptamer (quencher-CACCTGGGGGAGTATTGCGGAGGAAGG + anchor), 100 nM annealed; ATP concentration: 500 uM
How it was run: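 Per cluster, summed Cy3 intensity from the target cycles was divided by that from the buffer cycles to give the fluorescence ratio, then averaged per switch-domain sequence. Clusters outside 100-1000 RFU were excluded. The Cy3-labelled switching-strand clusters, on a modified Illumina MiSeq flow-cell, were annealed to 100 nM quencher-labelled ATP aptamer and imaged in selection buffer, then after 15 min with 500 uM ATP at 22 °C, for five cycles with NaOH stripping and re-annealing between them.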
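Also: ATP exposure 15 min at 22 °C before imaging.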

Sequence	switch fluorescence ratio
AGCTGATGTG	1.008 ± 0.0051
AGCTGCACAT	1.048 ± 0.0022
AGCTGGCCCT	1 ± 0.013
AGCTGGCTGT	0.9735 ± 0.0037
AGCTGGGATT	0.989 ± 0.054
AGCTGTACTG	1.09 ± 0.011
AGCTGTCGCT	1.01 ± 0.076
AGCTGTTGCA	0.971 ± 0.024
AGCTTAGGGA	0.99 ± 0.036
AGCTTATCTA	1 ± 0.011
AGCTTATGTT	0.985 ± 0.017
AGCTTCCATG	1.09 ± 0.023
AGCTTCGGTC	0.953 ± 0.0098
AGCTTCGTTT	1 ± 0.031
AGCTTCTTAA	0.992 ± 0.068
AGCTTGAAG	0.999 ± 0.019
AGCTTGATGT	1.02 ± 0.053
AGCTTGGGTC	0.994 ± 0.019
AGCTTGTCGG	1.01 ± 0.025
AGCTTGTTCG	0.987 ± 0.023
AGCTTTGGGG	1.02 ± 0.018
AGGAAAGGCG	1.09 ± 0.015
AGGAAAGTGT	1.01 ± 0.017
AGGAAATTTG	0.994 ± 0.031
AGGAACGCGG	1.04 ± 0.018

Sequence	switch fluorescence ratio
AGGAACTGCA	1.07 ± 0.029
AGGAAGCGGT	0.958 ± 0.051
AGGAAGGGGA	0.9683 ± 0.0089
AGGAATACTT	1.07 ± 0.043
AGGAATCAAG	0.9968 ± 0.0071
AGGAATGCAA	1.09 ± 0.017
AGGAATTGAT	1.13 ± 0.27
AGGAATTTTA	0.9554 ± 0.0062
AGGACAGGTG	1.33 ± 0.055
AGGACGGTAG	0.992 ± 0.058
AGGACGTTGG	0.963 ± 0.034
AGGACTGTCT	0.986 ± 0.018
AGGAGAACGG	0.938 ± 0.011
AGGAGAAGGG	0.985 ± 0.018
AGGAGAGGGT	0.967 ± 0.013
AGGAGAGTCA	0.9825 ± 0.0036
AGGAGGAAGT	1.01 ± 0.026
AGGAGGCATG	0.986 ± 0.043
AGGAGGCGGG	0.99 ± 0.035
AGGAGGGCAG	1.013 ± 0.0059
AGGAGGGCGA	0.9582 ± 0.002
AGGAGGTGCT	0.965 ± 0.067
AGGAGTGGGG	1 ± 0.022
AGGAGTTCTT	0.989 ± 0.032
AGGAGTTTGG	0.981 ± 0.015

Sequence	switch fluorescence ratio
AGGATAAATT	0.983 ± 0.025
AGGATACATT	1.02 ± 0.02
AGGATATGGA	0.997 ± 0.022
AGGATCTATG	1.03 ± 0.021
AGGATGAGCT	0.969 ± 0.032
AGGATGGTAA	1 ± 0.02
AGGATGGTGG	1.02 ± 0.037
AGGATGTGAC	1.01 ± 0.02
AGGATTCGGC	1.04 ± 0.059
AGGATTGTGA	1.02 ± 0.028
AGGATTTACT	1.01 ± 0.026
AGGATTTAGG	0.983 ± 0.031
AGGCACAGAA	1.019 ± 0.0098
AGGCACGCGC	1.01 ± 0.013
AGGCAGTTCG	0.996 ± 0.02
AGGCAGTTGG	0.966 ± 0.019
AGGCATCGGA	0.9953 ± 0.0063
AGGCATTAAT	1.01 ± 0.018
AGGCCAGGGG	1.06 ± 0.1
AGGCCCACAT	1.01 ± 0.046
AGGCCCGAGC	0.98 ± 0.073
AGGCCCGGGC	0.958 ± 0.023
AGGCCGGAGC	1.06 ± 0.036
AGGCCGGGGG	0.992 ± 0.025
AGGCCGTTCG	0.9976 ± 0.0073

Sequence	switch fluorescence ratio
AGGCCTTTTC	1.008 ± 0.0026
AGGCGAAACG	0.97 ± 0.065
AGGCGACGTT	0.9931 ± 0.0069
AGGCGAGGGG	0.988 ± 0.032
AGGCGATAAT	1.12 ± 0.13
AGGCGATCGG	0.99 ± 0.023
AGGCGCGGTG	1.03 ± 0.0079
AGGCGCTTAT	1.33 ± 0.55
AGGCGGAGCT	0.9926 ± 0.0033
AGGCGGATTT	1 ± 0.044
AGGCGGCTGA	1.05 ± 0.021
AGGCGGGAGG	1.034 ± 0.0056
AGGCGGGGGT	1.018 ± 0.0094
AGGCGGGTAA	1.022 ± 0.0082
AGGCGTGGCT	0.982 ± 0.064
AGGCGTTGGT	1.05 ± 0.11
AGGCTAACCG	0.985 ± 0.019
AGGCTACGTC	0.9925 ± 0.0061
AGGCTGGCTC	0.98 ± 0.01
AGGCTGTGGG	1.03 ± 0.015
AGGCTTATCT	0.989 ± 0.025
AGGCTTGAGG	0.9904 ± 0.0044
AGGCTTTGGG	0.978 ± 0.0099
AGGGAAAAGG	1.02 ± 0.031
AGGGAAATAG	1.02 ± 0.023
